Source: article PMC11178898, “A clade of receptor-like cytoplasmic kinases and 14-3-3 proteins coordinate inositol hexaphosphate accumulation” (Nature Communications, 2024)

What was measured:
[1] = target: IPK2β, Split-LUC fusion; test: Split-LUC; conditions: cluc-IPK2β, 35S::IPCK1-flag co-infiltrated (1:1:2), parent value is P2 (nluc-GRF4, cluc-IPK2β …), parent: 7442.09
[2] = target: T1, IPK1-HIS (Arabidopsis thaliana, UniProt Q93YN9 1-451); test: pull-down; in vitro; GST- and HIS-tagged proteins from E. coli BL21 (DE3); bait on GST or Ni-NTA beads, incubated with the protein of the other tag on ice for 2 h, washed with PBS, blot with anti-HIS and anti-GST; conditions: both partners purified
T1 construct: IPK1, inositol polyphosphate kinase, Arabidopsis thaliana; the CDS was cloned into pCOLD-TF; source: E. coli BL21 (DE3), pCOLD-TF, purified
T1 sequence (looked up): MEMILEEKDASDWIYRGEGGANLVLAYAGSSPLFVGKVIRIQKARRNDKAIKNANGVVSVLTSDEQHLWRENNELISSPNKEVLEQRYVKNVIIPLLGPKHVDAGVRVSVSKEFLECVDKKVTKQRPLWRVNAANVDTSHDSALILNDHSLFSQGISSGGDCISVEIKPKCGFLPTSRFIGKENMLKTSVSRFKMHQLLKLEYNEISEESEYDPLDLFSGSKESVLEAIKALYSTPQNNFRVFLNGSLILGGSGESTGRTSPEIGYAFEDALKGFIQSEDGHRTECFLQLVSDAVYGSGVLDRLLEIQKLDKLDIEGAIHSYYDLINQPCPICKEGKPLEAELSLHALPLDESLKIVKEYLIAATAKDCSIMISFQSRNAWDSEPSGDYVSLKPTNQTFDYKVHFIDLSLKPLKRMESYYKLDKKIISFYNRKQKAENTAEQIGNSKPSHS

Molecule: GRF4, Split-LUC fusion (from UniProt P46077) S242A
- response (cps (average)) ([1]; P3: nluc-GRF4 S242A, Total cps 452167, Areas 116.3): 3890

Molecule: GRF4, Split-LUC fusion (from UniProt P46077) S242D
- response (cps (average)) ([1]; P4: nluc-GRF4 S242D, Total cps 2045502, Areas 266): 7690

B1: GRF4-GST (natural protein, Arabidopsis thaliana, UniProt P46077 1-267, looked up)
chain: MAAPPASSSAREEFVYLAKLAEQAERYEEMVEFMEKVAEAVDKDELTVEERNLLSVAYKNVIGARRASWRIISSIEQKEESRGNDDHVTTIRDYRSKIESELSKICDGILKLLDTRLVPASANGDSKVFYLKMKGDYHRYLAEFKTGQERKDAAEHTLTAYKAAQDIANAELAPTHPIRLGLALNFSVFYYEILNSPDRACNLAKQAFDEAIAELDTLGEESYKDSTLIMQLLRDNLTLWTSDMQDESPEEIKEAAAPKPAEEQKEI
notes: GRF4, 14-3-3 protein, Arabidopsis thaliana; the CDS was cloned into pGEX-4T-1; source: E. coli BL21 (DE3), held on GST beads
- binding result [2]: binds
